Results reported in US20230235012A1 (ALPINE IMMUNE SCIENCES, published 2023).
Each block holds one molecule with its values, some of them ahead of it.

Tests used:
[1] = target: human PD-L1, full-length, expressed on transfected cells (human) (UniProt Q9NZQ7); assay: flow cytometry, transfected cells
[2] = target: human CD28, full length, expressed on cells (human, UniProt P10747 19-220); assay: flow cytometry of human T cells from blood of treated GVHD mice
human CTLA-4 [3] = target: T1, human CTLA-4 (human, UniProt P16410 36-223); assay: flow cytometry, transfected cells
T1 construct: whole, on cells
T1 sequence (P16410 36-223): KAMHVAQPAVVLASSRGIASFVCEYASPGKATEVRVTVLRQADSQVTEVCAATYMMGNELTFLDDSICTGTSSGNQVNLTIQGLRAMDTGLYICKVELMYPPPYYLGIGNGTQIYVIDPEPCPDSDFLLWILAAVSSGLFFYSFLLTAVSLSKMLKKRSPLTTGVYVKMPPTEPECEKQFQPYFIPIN

human CTLA-4 [4] = target: T1, human CTLA-4; assay: flow cytometry, transfected cells; protein from 293

human PD-L1, full-length, expressed on transfected cells (human), sequence (Q9NZQ7 19-290): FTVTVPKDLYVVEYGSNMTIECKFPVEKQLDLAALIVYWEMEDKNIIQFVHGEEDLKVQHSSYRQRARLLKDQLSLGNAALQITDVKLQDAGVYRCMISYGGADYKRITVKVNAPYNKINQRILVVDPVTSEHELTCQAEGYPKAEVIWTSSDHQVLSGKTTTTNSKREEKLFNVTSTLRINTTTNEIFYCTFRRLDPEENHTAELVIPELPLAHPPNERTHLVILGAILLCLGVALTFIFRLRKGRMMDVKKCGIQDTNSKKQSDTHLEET

MFI [1]: 2660 MFI
Molecule: stacked Fc fusion: Domain 1 CD80 WT / Domain 2 ICOSL WT / Fc

binding result [2]: binds
B1: variant ICOSL IgV-Fc (N52H/N57Y/Q100R) (Fc fusion)
chain: DTQEKEVRAMVGSDVELSCACPEGSRFDLNDVYVYWQTSESKTVVTYHIPQHSSLEYVDSRYRNRALMSPAGMLRGDFSLRLFNVTPQDEQKFHCLVLSRSLGFQEVLSVEVTLHVAANFSVEPKSSDKTHTCPPCPAPEAEGAPSVFLFPPKPKDTLMISRTPEVTCVVVDVSHEDPEVKFNWYVDGVEVHNAKTKPREEQYNSTYRVVSVLTVLHQDWLNGKEYKCKVSNKALPAPIEKTISKAKGQPREPQVYTLPPSRDELTKNQVSLTCLVKGFYPSDIAVEWESNGQPENNYKTTPPVLDSDGSFFLYSKLTVDKSRWQQGNVFSCSVMHEALHNHYTQKSLSLSPG

MFI (human CTLA-4 [3]): 7580 MFI
MFI (human CTLA-4 [4]): 12100 MFI
B2: Wildtype ICOSL ECD (control of Tables 30C and 30D) (Fc fusion, not shown: a dimerising Fc or GST)
chain: DTQEKEVRAMVGSDVELSCACPEGSRFDLNDVYVYWQTSESKTVVTYHIPQNSSLENVDSRYRNRALMSPAGMLRGDFSLRLFNVTPQDEQKFHCLVLSQSLGFQEVLSVEVTLHVAANFSVPVVSAPHSPSQDELTFTCTSINGYPRPNVYWINKTDNSLLDQALQNDTVFLNMRGLYDVVSVLRIARTPSVNIGCCIENVLLQQNLTVGSQTGNDIGERDKITENPVSTGEKNAAT
